± gives the standard deviation of the averaged measurements.
System: ATP
Test: switch fluorescence ratio, 500 uM ATP over buffer (Cy3 cluster intensity, sum of 5 cycles each) (fold (ratio)); higher = stronger signal-on switching upon ATP binding; sequences stand for … in TCGTCGGCAGCGTCAGATGTGTATAAGAGACAGTTTTTTTTTTTTTTTTTTTTTTTTT…TC
Conditions: aptamer strand: ATP DNA aptamer (quencher-CACCTGGGGGAGTATTGCGGAGGAAGG + anchor), 100 nM annealed; ATP concentration: 500 uM
Method in brief: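 Cy3-labelled switching-strand clusters on a modified Illumina MiSeq flow-cell were annealed to 100 nM quencher-labelled ATP aptamer and imaged first in selection buffer, then after 15 min with 500 uM ATP at 22 °C. NaOH stripping and re-annealing separated each of five buffer/ATP cycles, and clusters outside 100-1000 RFU were excluded. The fluorescence ratio sums target-cycle Cy3 intensity over buffer-cycle Cy3 intensity per cluster and averages it per switch-domain sequence.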
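Further: ATP exposure 15 min at 22 °C before imaging.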

Row | Sequence | switch fluorescence ratio
1 | TTTGTTTCAC | 1.04 ± 0.043
2 | CATGTTTGTG | 0.982 ± 0.023
3 | AGTATATGCC | 1 ± 0.034
4 | TATTGTGCTT | 0.982 ± 0.035
5 | TTTGTTCGGA | 0.9795 ± 0.0059
6 | TAGTTATGAA | 1.01 ± 0.016
7 | GCGATAGGGC | 1.02 ± 0.065
8 | ACTGAAGCAT | 1.17 ± 0.021
9 | GCATTTGAAA | 0.978 ± 0.011
10 | TTTAAGGGCC | 0.978 ± 0.036
11 | ATGGCAGGAT | 1 ± 0.063
12 | TTGCTGGGCG | 0.995 ± 0.026
13 | CTGGTTCACC | 0.99 ± 0.013
14 | TAGAGGGGCG | 0.946 ± 0.065
15 | AATGATTGCG | 1 ± 0.039
16 | GTGAGCGGGG | 0.974 ± 0.037
17 | CAGCTGGGGG | 1 ± 0.024
18 | TTCTACTGGG | 1.01 ± 0.028
19 | TATCGGTCTT | 0.9224 ± 0.0088
20 | CCTGAAGACA | 1 ± 0.02
21 | TGAATTCCAT | 0.983 ± 0.023
22 | AGGTAAGTAG | 1.01 ± 0.031
23 | TAGCCGGTTC | 1.026 ± 0.01

Row | Sequence | switch fluorescence ratio
24 | CGATGAGTAA | 1 ± 0.029
25 | TTTTCATGCC | 1.09 ± 0.056
26 | GGCGTAATAT | 1.54 ± 0.085
27 | AGTATATTGG | 0.99 ± 0.044
28 | CGAGTTAAGC | 0.965 ± 0.02
29 | TTTTTGGAAA | 1.01 ± 0.051
30 | GAATTTAGTC | 1.06 ± 0.077
31 | TTTGTACGCA | 1.71 ± 1
32 | TTTACGCGGG | 1.04 ± 0.075
33 | ATGGATATAT | 0.995 ± 0.016
34 | AGACATCTTT | 1.016 ± 0.0062
35 | GGGGCACAGC | 1 ± 0.016
36 | ACTCGTAACT | 0.9931 ± 0.0057
37 | ATGGGGGCTG | 1.02 ± 0.047
38 | TGGGAAAGGA | 1.01 ± 0.051
39 | AGCGGCAACG | 1.08 ± 0.098
40 | TACACTGGGT | 0.999 ± 0.022
41 | TCAAAATTTA | 1.02 ± 0.048
42 | GTCCCCACAG | 1.103 ± 0.007
43 | ACTTGCGCAG | 1.05 ± 0.043
44 | TGGAGCTCTG | 0.981 ± 0.027
45 | AGGGGTATT | 1 ± 0.014
46 | ATAAAACGC | 1.04 ± 0.071

Row | Sequence | switch fluorescence ratio
47 | CTAGAGGCGA | 1.03 ± 0.026
48 | TGTATTTTTG | 1.02 ± 0.029
49 | TACCATGGTA | 0.987 ± 0.035
50 | CTAATAGTGC | 1.016 ± 0.0021
51 | TCCTGGGGGA | 1.15 ± 0.22
52 | GAGAGAATAG | 1.03 ± 0.034
53 | TTTACCGGCG | 1.02 ± 0.051
54 | GGAGGATGCT | 0.948 ± 0.053
55 | CCCTTTAGGG | 1.025 ± 0.0025
56 | GAGTAACTGT | 0.966 ± 0.016
57 | AGAGCGTGGT | 0.999 ± 0.023
58 | GAAGTTGGAG | 0.97 ± 0.053
59 | ATCGTAAGGG | 0.983 ± 0.038
60 | AGTGGTGGGA | 1.01 ± 0.033
61 | TTTAGGAAAG | 1.05 ± 0.063
62 | AAGTGTGACT | 1 ± 0.019
63 | TAGAAGGGGT | 0.969 ± 0.047
64 | GACTTAAGGC | 1.005 ± 0.0011
65 | TACACCCTTC | 1.183 ± 0.011
66 | ACAGTCGGGC | 1.001 ± 0.0073
67 | TAACGGGAAT | 0.99 ± 0.02
68 | TCATGGTTTA | 1.01 ± 0.016
69 | GCCATCACGC | 0.9836 ± 0.006

Row | Sequence | switch fluorescence ratio
70 | ATTAAAACGG | 1.07 ± 0.098
71 | GGATTGTAGG | 0.9738 ± 0.0053
72 | GACGTTTATG | 0.949 ± 0.099
73 | TTTGTTAAG | 1.02 ± 0.018
74 | TTTCCGCTTA | 3.67 ± 1.7
75 | CTGGACGCTG | 1.01 ± 0.017
76 | AGGATTAAGG | 0.992 ± 0.018
77 | ACTAAAAGGC | 1.0107 ± 3.2e-05
78 | CGATTGCATG | 1.05 ± 0.017
79 | GTAAGGGATG | 1.01 ± 0.016
80 | GGGTTGGAGG | 0.995 ± 0.021
81 | TGACAGGCGG | 0.963 ± 0.011
82 | AATAAAAATG | 1.02 ± 0.027
83 | CTGTATGATC | 1 ± 0.024
84 | TTTTCAGGAA | 1.018 ± 0.0092
85 | TGATCATGTT | 0.984 ± 0.037
86 | AAATACGGGA | 1.17 ± 0.13
87 | TACAGGGGTC | 1.06 ± 0.019
88 | GCTGTAAATT | 0.982 ± 0.019
89 | TTAAGTCTTC | 0.964 ± 0.039
90 | GGAGGGTTTT | 1.01 ± 0.035
91 | ATTTTGTGAG | 0.969 ± 0.031
92 | CGGAGTTACA | 1.068 ± 0.0072

Row | Sequence | switch fluorescence ratio
93 | GTGGGATTTG | 0.9697 ± 0.0069
94 | TCAAGGCCGG | 1.02 ± 0.035
95 | GTGGCTCTGC | 0.973 ± 0.077
96 | TCGGTATATG | 0.991 ± 0.011
97 | GGTGAGATTA | 0.9804 ± 0.0073
98 | ACTGGTTTAG | 0.9975 ± 0.0095
99 | ACTTGTGGTC | 0.9952 ± 0.0084
100 | GGTGGGTGTC | 0.974 ± 0.016
101 | ATCTGCGCGC | 0.992 ± 0.011
102 | ATAATTTCAA | 0.999 ± 0.017
103 | GAAGGACAGA | 1 ± 0.018
104 | TTAGTTATGT | 0.992 ± 0.0093
105 | TTTGGATATG | 0.992 ± 0.037
106 | TTAAAGCGTG | 0.969 ± 0.011
107 | CGGGTCCAGC | 1.01 ± 0.033
108 | AAAACTTCCT | 2.5 ± 0.67
109 | ATATGCATAG | 1.05 ± 0.051
110 | TGAGTGGGTC | 1.03 ± 0.013
111 | TAGGTGAAAC | 0.988 ± 0.016
112 | ACCGGGTTGC | 1.064 ± 0.008
113 | AACCGGGGGG | 0.994 ± 0.045
114 | ACAGGGGGGA | 1.05 ± 0.046
115 | ACTTTGAGTG | 0.976 ± 0.015

Row | Sequence | switch fluorescence ratio
116 | AAGTAGTCGT | 1.01 ± 0.05
117 | AGTAAAGATT | 0.9995 ± 0.0041
118 | GGGGTAGGAG | 1.03 ± 0.093
119 | GTAATAAATT | 1.02 ± 0.092
120 | TGATAAGGGG | 1.01 ± 0.039
121 | AGTCGGGCGC | 0.983 ± 0.051
122 | CGATAAGCGG | 1.02 ± 0.035
123 | TGTTTGATGT | 0.983 ± 0.019
124 | AGGTAGGCCA | 0.951 ± 0.026
125 | TGAAATATTG | 0.996 ± 0.022
126 | ATCGGGGGGA | 0.986 ± 0.034
127 | GCAGGACGGG | 1.4 ± 0.64
128 | GCTCGTAGGC | 0.99 ± 0.054
129 | ACTCGGTTGG | 1.03 ± 0.037
130 | ATTGTGTTCC | 1.05 ± 0.0057
131 | GATTCCGTGT | 1.01 ± 0.031
132 | CAACTAGTGG | 0.978 ± 0.037
133 | TGGGGTACTA | 0.975 ± 0.069
134 | GATAGATCAG | 0.993 ± 0.018
135 | TGTGTTACGG | 0.984 ± 0.023
136 | GGTTGATTTA | 1.036 ± 0.0037
137 | GAGATAGGGA | 1.01 ± 0.029
138 | ATAATTGGGT | 0.993 ± 0.022

Row | Sequence | switch fluorescence ratio
139 | TTTGCTAAA | 1.01 ± 0.046
140 | GAGAGGGATG | 1.01 ± 0.043
141 | TAAGTTAGGG | 0.972 ± 0.029
142 | AAGATCACTG | 1.06 ± 0.068
143 | AGAAATTATA | 1.001 ± 0.0073
144 | GAGGTAATGT | 1.039 ± 0.0025
145 | AGGGGTTACG | 0.981 ± 0.044
146 | ACAGGGATCA | 0.981 ± 0.052
147 | GATGGCATAA | 1.01 ± 0.025
148 | ATGAGGGGAA | 1.04 ± 0.034
149 | CGACTTTTGT | 0.967 ± 0.013
150 | TTGAGTCATG | 0.978 ± 0.047
151 | ATAGGTTTGG | 0.97 ± 0.014
152 | CAAGATTGCC | 1 ± 0.034
153 | CTGTCGAGGC | 0.977 ± 0.053
154 | GGTGTAATGG | 1.04 ± 0.04
155 | CTAATGGTTT | 0.982 ± 0.024
156 | AAAGAGAGTT | 0.9964 ± 0.0065
157 | ACCGTGTCAA | 1.01 ± 0.032
